This assay has as its target T1, recombinant soluble human CD4 (human, UniProt P01730 26-396, limits assumed).
T1 construct: Soluble recombinant CD4 used for ELISA and SPR/BIAcore; also called rCD4; sCD4
In words: BIAcore; rCD4 coupled to chip, mAb flowed (avidity). The procedure: The rate and equilibrium constants presented in Table 19 were determined with a BIAcore, using antigen (rCD4) coupled to the sensor chip and flowing mAb over. These constants were derived from at least three independent experiments using purified mAbs.

B1: 6G5.1 (antibody, human IgG1, V domains shown)
VH: QVQLQQWGAGLLKPSETLSLTCAVYGGSFSGYYWSWIRQPPGKGLEWIGEINHSGSTNYNPSLKSRVTISVDTSKNQFSLKLSSVTAADTAVYYCARVINWFDPWGQGTLVTVSS
VL: DIQMTQSPSSVSASVGDRVTITCRASQDISSWLAWYQHKPGKAPKLLIYAASSLQSGVPSRFSGSGSGTDFTLTISSLQPEDFATYYCQQANSFPYTFGQGTKLEIK
notes: Human IgG1 kappa from a hybridoma of an HC2/KCo5 mouse; VH4-34/JH5, VkL19/Jk2; also called GGS
Regarding B1, the kon (usually the second-order rate constant of association) came out at 11000 M⁻¹ s⁻¹.

Values taken from US7041871.
